In patent US20090221476A1:

Molecular target: tubulin purified on a phosphocellulose column (mouse)
Test: cell-based or functional assay

Chain of tubulin purified on a phosphocellulose column (mouse) (P68369 whole entry, chain 1 of 2): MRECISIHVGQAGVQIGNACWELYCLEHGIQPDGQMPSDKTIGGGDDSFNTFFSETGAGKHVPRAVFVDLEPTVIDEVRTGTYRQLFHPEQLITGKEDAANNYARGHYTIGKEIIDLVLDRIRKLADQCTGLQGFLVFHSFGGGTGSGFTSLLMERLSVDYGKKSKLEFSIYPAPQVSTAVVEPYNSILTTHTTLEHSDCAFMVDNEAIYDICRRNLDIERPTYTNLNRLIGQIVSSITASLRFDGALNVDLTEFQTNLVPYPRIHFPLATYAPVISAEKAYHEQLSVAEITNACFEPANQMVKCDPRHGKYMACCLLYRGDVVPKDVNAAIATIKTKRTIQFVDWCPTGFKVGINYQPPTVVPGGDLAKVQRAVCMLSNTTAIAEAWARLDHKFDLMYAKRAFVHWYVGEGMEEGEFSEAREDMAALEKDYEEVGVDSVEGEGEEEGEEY
Chain of tubulin purified on a phosphocellulose column (mouse) (Q9ERD7 whole entry, chain 2 of 2, further chain): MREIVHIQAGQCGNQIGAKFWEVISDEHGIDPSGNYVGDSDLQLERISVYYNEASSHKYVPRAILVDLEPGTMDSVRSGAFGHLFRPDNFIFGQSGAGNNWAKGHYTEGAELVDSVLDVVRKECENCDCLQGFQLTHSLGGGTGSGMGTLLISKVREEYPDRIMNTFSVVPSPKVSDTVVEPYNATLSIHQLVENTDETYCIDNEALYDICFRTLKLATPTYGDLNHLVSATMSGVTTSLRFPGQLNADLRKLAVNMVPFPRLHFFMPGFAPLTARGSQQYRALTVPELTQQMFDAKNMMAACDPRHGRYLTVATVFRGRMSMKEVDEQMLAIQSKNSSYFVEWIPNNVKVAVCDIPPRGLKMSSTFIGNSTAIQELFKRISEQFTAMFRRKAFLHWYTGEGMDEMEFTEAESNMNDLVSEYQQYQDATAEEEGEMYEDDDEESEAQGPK

inhibition of tubulin polymerization (% inhibition at 100 µM)	T98G cells in phase G1 after 48 hours with 10 µM peptide (FACS; 39% in untreated cultures) (% of cells in G1)	Substance
30	–	Neurofilament Light subunit-Tubulin Binding Site 1 (NFL-TBS1) (peptide)
30	–	Neurofilament high subunit-Tubulin Binding Site (NFH-TBS) (peptide)
30	–	Neurofilament Medium subunit-Tubulin Binding Site (NFM-TBS) (peptide)
100	61	Neurofilament Light subunit-Tubulin Binding Site 2 (NFL-TBS2) (peptide)
